Laboratory results reported in the nanobody polyreactivity screen of Harvey et al. (2022).

Test: yeast display, Sf9 membrane polyspecificity reagent, FACS + sequencing; frameworks hold sequencing errors
How it was run: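 In a synthetic yeast display library (Saccharomyces cerevisiae BJ5465), nanobody expression was induced with galactose for 36–48 hours. FACS gates were set low and high (top ~1%) using anti-HA fluorescence for expression and streptavidin fluorescence for binding of the Sf9 membrane reagent. Each polyreactivity label is drawn from the gate of origin.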

Row | Sequence | polyreactivity (PSR sort gate)
1 | QVQLVESGGGLVQAGGSLRLSCAASGFTLYRNAMGWYRQAPGKERELVAAITSSGGRTYYADSVKGRFTISRDNAKYTVYLQMNSLKPEVTAVYSCAADFGLGYYYWGQGTQVTVSS | high polyreactivity
2 | QVQLVESGGGLVQAGGSLRLSCAASGRTFGNNAMGWYRQAPGKERELVAAITGSGGSTYYADSVKGRFTISRDNAKNTVYLQMNSLKPEDTAVYYCAAVVYGAVRGSRYPYYYWGQGTQVTVSS | high polyreactivity
3 | QVQLVESGGGLVQAGGSLRLSCAASGSIFYVYAMGWYRQSPGKERELVAAITSSGTTNYADSVKGRFTISRDNAKNTVYLLMNSLKPEDSAVYYCAADPDSGHVRFDYWGQGTQVTVSS | low polyreactivity
4 | QVQLVESGGGLVQAGGSLRLSCAASGFIFKINAMGWYRQAPGKERELVAAINWTGGNTYYADSVKGRFTISRDNAKNTVYLQMNSLKPEDTAVYYCAAEFDVGWTWDYYWGQGTQVTVSS | high polyreactivity
5 | QVQLVESGGGLVQAGGSLGLNCAASGFTFRVNAMGLYSQAPGKEREFVAAITASGGSTYYADSVKGRFTISRDNAKNTVYLLMNSLKPVDTAVYYCAADWWIYWYPDTGDYWGQRTQVTVSS | high polyreactivity
6 | QVQLVESGGGLVQAGGSLRLTCAASGSTFYIYAMGWYRQAPGKERELVAAISQGGGSTSYADSVKGRFTISRDYAKNTVYLQMNSLKPEDTAVYYCAARRASRVRGKEGGYWGQGSQVTVSS | high polyreactivity
7 | QVQLVESGGGLVQAGGSLRLSCAASGSTFYSYAMGWYRQAPGKEREMVAAITRGGSTNYADSVKGRFTISRDNAKNTVYLQMNSLKPDDTAVYYCAKSKYTGTAFGGKKTWFNYWGQGTQVTVSS | high polyreactivity
8 | QVQLVESGGGLVQAGVSLRLSCAASGSTFRRYAMGWYRQAPGKAWEISTSDGSTYYADSVKGRFTISRDNAKNTVYLQMNSLKPEDTAVYYCAADGYRQLIEDITDDYWGQGTQVTVSS | low polyreactivity
9 | QVQLVESGGGLVQAGVSLRLSCAASGFSFAKNAMAWYRQAPGKERELVADITYSGGSTYADSVKGRFTISLDNAKNTVYFQMNSLKPEDTAVYYCAADSRRRSCYDYWVQGTQVTVSS | low polyreactivity
10 | QVQLVESGGGLVQAGGSLRLSCAASGLIFRPYAMGWYRQAPGKERELVAAISSSGGSTYYADSVKGRFTISRDNAKNTVYLQMNSLKPEDTAVYYCATYFARGYNSWGQGTQVTVSS | high polyreactivity
11 | QVQLVESGGGLVQAGGSLRLSCAASGRTFYKYAMGWYIQAPGKERELVARISGRGGRTYYADSVKGRFTISRDNAKNTVYLQMNSLKPEDTEVYYCASDWVPINVKSLVVTYDYWGQGTQVTVSS | low polyreactivity
12 | QLQLVESGGGLVQAGGSLRLSCAASGSTFDTYAMGWYRHAPGKERELVAGINTDGDNTYYADSVKGRFTISRDNAKNTVYVQMNSLKPEDTAVYYCAARFYRASGRTPSYRGHHYDYWGQATQVTVSS | low polyreactivity
13 | QVQLVESGGGLVQAGGSLRLSCAASGFTFTRYAMGWYRQAPGTERELVAAISRRGGSTYYADSVKGRFTISRDNAKNTVYLQMNSLKPEDTAVYYCAKDAGSRTVREFGYWGQGTQVTVSS | high polyreactivity
14 | QVQLVESGGGLVQAGGSLRLSCAASGSSFDWNAMGWYRQAPGKERELVASITGSGGGTNYADSVKGRFTISRDNAKNTVYLQMNSLKPEDTAVYYCNADGLNFDGHEYWGQGTQVTVSS | low polyreactivity
15 | QVQLVESGGGLVQAGGSLRLSCAASGFTFEFYVMGGYSPAPGKERELVAAISTTGGSTYYADSVKGRFTISRDNAKNTVYLQMNSLKPEDTAVYYCAAEYYLWWKSHLWEYGYWGQGTQVTVSS | high polyreactivity
16 | QVQLVESGGGLVQAGGSLRLSCAASGFIFYRYAMGWYRQAPGKERELVAAITSSGGSTYYADSVKGRFTISRDNAKNTVYLQMNSLKPEDTAVYYCAARYTTSRYGYWGQGTQVTVSS | high polyreactivity
17 | QVQLVESGGGLVQAGGSLRLSCAASGFIFYTYAMGWYRQAPGKERELVAAISWNGGSTNYADSVKGRFTISRDNAKNTDYLQMNSLKPEDTAVYYCAARSVSTLRYTSRKLRYDYWGQGTQVTVSS | high polyreactivity
18 | QVQLVESGGCLVQAGGSLRLSCSASGSTITYYAMGWYRQAPGKERELVAAISGRGGRTDYADSVKGRFTISRDNAKNTVYLQMNSLKPEATAVYYCARAGRVQPGSEDDYWGQGTQVTVSS | high polyreactivity
19 | QVQLVESGGGLVQAGGSLRLSCAASGRTFLVYAMGWYRQAPGKERELVATIRASTGSTYADSVKGRFTISRDNAKNTVYLQMNSLKPEDTAVYYCAASIRTSPYNYDYWGQGTQVTVSS | high polyreactivity
20 | QVQLVESGGGLVQAGGSLRLSCAASGGTFSYYAMGWYRQAPGKERELFASISSGGSTYYADSVKGRFTISRDNAKNTVYLQMNSLKPEDTAVYYCNAEARSRRYRYDYWGQGTQVTVSS | high polyreactivity
21 | QVQLVESGGGLVQAGGILRLICAASGFIFLGYALGWYRQAPGTERELVAAISSDSDKNYADSVKGRFTISRDNAKNTVYLQMNILKPEDTAVYYCIADIDSYREMDYWGQGTQVTVSS | low polyreactivity
22 | QVQLVESGGGLVQAGGSLRLSCAASGFTFRRNAMGWYRQAPGKERELVAAISSSGGSTSYADSVKGRFTISRDNAKNTVYLQMNSLKPEDTAVYYCAVEVASYDRRPSEYYWGQGTQVTVSS | high polyreactivity

Row | Sequence | polyreactivity (PSR sort gate)
23 | QVQLVESGGGLDQAGGSLRLSCAASGIIFVKYTMGWYIQAPGKERELDAAISRSGGSTYYADSVKGRFTISRDNAKYTVYLQMNSLKPEDTAVYYCNAGARKVYPGPMDYWGQGTQVTVSS | high polyreactivity
24 | QVQLVESGGGLVQAGGSLRLSCAASGFILPTYAMGWYRQAPGKERELVAAITRSGGSTYYADSVKGRFTISRDNAKNTVYLQMNSLKPEDTAVYYCAAQRLSASRPYGYWGQGTQVTVSS | high polyreactivity
25 | QVQLVESGGGLVQAGGSLRLSCAASGFTYSFYTMGWSRQAPGKERELVAAISRNGGSTYYADSVKGRFTISRDNAKNTVYLQMNSLKPEDTAVYYCAARARGGDWGSGDYWGQGTQVTVSS | high polyreactivity
26 | QVQLVESGGGLVQAGGSLRLSCAASGLIFDYYGMGWYRQAPGKEREFVAAINRSGGTTYYADSVKGRFTISRDNAKNTVYLQMNSLKPEDTAVYYCNADRGPAKLVYDPVIMDYWGQGTQVTVSS | low polyreactivity
27 | QVQLVESGGGLVQAGGSLRLNCAASGFTFYTYAMGWYRQAPGKERELVAAITSGGGTYYADSVKGRFTISRDNAKYSVYLQMNSLKPEDTAVYYCNRASRRGYYYPYNYWGQGTQVTVSS | high polyreactivity
28 | QVQLVESGGGLDQAGGSLRLSCAASGSTLFPYAMGWYRQAPGKERELVAAISSRGGRTNYADSVKGRFTISRDNAKNTDYLQLYSLKPEDTAVYYCAAGDDYWGQGTEVTVSS | high polyreactivity
29 | QVQLEESGGGLVQAGGSLRLSCPASGYTFESNAMGWSRQAPRKERELVAAINGGGGTYYADSVKGRFTISRDNGKNTVYLQMNSLKPEDTAVNVDIGFAYVPNYDYWGQGTQVTVSS | low polyreactivity
30 | QVQLVESGGGLVQAGGSLRLSCAASGSIFLDNAKGWYRQAPGKERELVSAISSGGNTNYADSVKGRFTISRDNAKNTVSLQMNSLKPEDTAVYYCAADPTKWHYYVPRYYYWGQGTQVTVSS | low polyreactivity
31 | QVQLVESGRGLVQAGGSLRLSCAASGSIFPTYALGCYRQAPGKERELVAAISSGENTYYADSVKGRFTISRDNAKNTVSLQMNSLKPEDTAVYFCAAADNYGIRDLYASDGTQNYYWGQGTQVTVSS | low polyreactivity
32 | QVQIVESGGGLVHAGGSLRLSCAASGRNIPPYVIAWYRQAPGKEREMVAAMSWRGGNTYYADSVKGRFTISRDNAKNTVYLQMNSLKPEDTAVYYCAAKAYRRYSIPPYGYWGQGTQVTVSW | low polyreactivity
33 | QVLLVESGGGLVQAGGSLRLSCAASGGTFGAYDMGWYRQAPGKERELVATITSGGRTNYADSVTGRFTISRDNAKNTVYLQMNSLKPVDTAVYYCNARYYGYDAPYHTYEYYYWGQGTQVTVSS | low polyreactivity
34 | QVQLEESVGGLVQAGGSLRIICAASGSIFSVNSIGWSRQAPGKERELVAAITRDSGSTNYADSVKGRFTISRDNAKNTVYLQMNSLKPEDTAVYYCAADFYYNVSTTIVNFSYDYWGHGTQVTVSS | high polyreactivity
35 | QVQLEESGGGLVQAGGSLRLSCAASGSIFYTYAMGWYRQAPGTERELVAAISRSGGSTYYADSVKGRFTISRDNAKNTVYLQMNSLKPEDTSVYYCAARPPYRVGIVPLGRREYYWGQGTQVTVSS | high polyreactivity
36 | QVQLVESGGGLVQAGGSLRLSCAASGFTFRFYAMGWYRQAPGKERELVATISSRGGRTYYADSVKGRFTISRDNAKNTVYLQLNSLKPEDTAVYYCAADQKSQYQGNYWGQGTQVTVSS | high polyreactivity
37 | QDQLVESGGGLVQAGGSLRLSCAASGRTFYLYAMGWYSQAPGKEREFVAVINSSGGSTYYADSVKGRFTISRDNAKNTVYLQMNSLKPEDTAVYYCAAYPIPRGRDYWGPGTQVTVSS | low polyreactivity
38 | QVQLVETGGGLVQAGGSLRVSCAASGSIFVGYPMGWYRQAPGKERELVAAISSNGGSTYYADSVKGRFTISRDNAKNTVYVQMNSLKPEDTAVYYCAAGVRRVYASGHGAYGYWGQGTQVTVSS | low polyreactivity
39 | QVQLVESGGGLVQAGGSLRLSCAASGRIFYSYGMGWYRQAPGKERELVASITISGGGSTYYADSVKGRFTISRDNAKNTVYLQMNSLKPEDTAVYYCAATRTVWKYIYDYWGQGTQVTVSS | high polyreactivity
40 | QVQLVESGGGLVQAGGSLRLSCAASGFTFYRYPMGWYRQAPGKETELVAAITKRGDRTYYADSVKGRFRISRDNAKNTVFLQMSSLKPEDTAVYFCASDPYYSVSYWLAYDYWGQGTQVTVSS | high polyreactivity
41 | QVQLVESGGGLVQAGGSLRLSCAASGRTFVVNAMGWYRQAPGKEREFVAAISYRGDSTYYADSVKGRFTISRDNAKNTVYLQMNSLKPEDTAVYYCAAQYRYGRYTRDYWGQGTQVTVSS | high polyreactivity
42 | QVQLVESGGGLVQAGGSLRLSCAASGSTFPVYAMGWYRQAPGKERELVAAITSGGSTNYADSVKGRFTISRDNAKNTVYLQMNSLKPEDTAVYYCNAEDIYRKRDFYHRLYDYWGQGTQVTVSS | low polyreactivity
43 | QVQLVESGGGLVQAGGSLRLSCDASGSIFDGYGMGWYRQAPGKERELVASITWNDGSTYYAASVKGRFTISRDNATNTVYLQMNSLKPEDTAVYYCAADQWGYEYDYWGQGTQVTVSS | low polyreactivity
